Among the data in US20140073563A1 are pERK ICW EC50 and pFGFR ICW EC50 values, retold here.

The assay deals with human FGFR1c together with human beta-Klotho (KLB) (human), P11362. In words: cell-based or functional assay.
Chain of human FGFR1c together with human beta-Klotho (KLB) (human), P11362 (P11362 22-822, chain 1 of 2): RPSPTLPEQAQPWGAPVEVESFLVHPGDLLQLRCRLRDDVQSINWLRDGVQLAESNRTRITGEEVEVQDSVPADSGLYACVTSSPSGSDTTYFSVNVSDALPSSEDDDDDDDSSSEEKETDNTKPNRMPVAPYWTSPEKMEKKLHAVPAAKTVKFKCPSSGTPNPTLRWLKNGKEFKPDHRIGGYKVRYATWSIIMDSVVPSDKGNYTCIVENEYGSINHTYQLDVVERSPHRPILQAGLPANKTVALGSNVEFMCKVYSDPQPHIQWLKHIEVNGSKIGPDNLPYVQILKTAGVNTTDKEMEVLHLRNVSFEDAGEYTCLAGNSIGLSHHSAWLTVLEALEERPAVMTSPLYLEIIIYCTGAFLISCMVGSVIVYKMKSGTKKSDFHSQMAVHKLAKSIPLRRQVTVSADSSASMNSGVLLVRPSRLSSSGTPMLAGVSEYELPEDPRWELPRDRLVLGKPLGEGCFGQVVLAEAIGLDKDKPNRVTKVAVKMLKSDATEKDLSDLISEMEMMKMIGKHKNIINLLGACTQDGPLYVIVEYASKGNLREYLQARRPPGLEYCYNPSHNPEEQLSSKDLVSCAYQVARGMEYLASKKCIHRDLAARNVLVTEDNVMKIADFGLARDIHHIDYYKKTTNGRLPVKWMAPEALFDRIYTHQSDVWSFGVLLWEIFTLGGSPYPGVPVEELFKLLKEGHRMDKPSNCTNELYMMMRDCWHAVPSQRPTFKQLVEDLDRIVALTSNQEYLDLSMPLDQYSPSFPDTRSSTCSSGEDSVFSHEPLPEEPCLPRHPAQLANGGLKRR
Chain of human FGFR1c together with human beta-Klotho (KLB) (human), P11362 (Q86Z14 whole entry, chain 2 of 2, further chain): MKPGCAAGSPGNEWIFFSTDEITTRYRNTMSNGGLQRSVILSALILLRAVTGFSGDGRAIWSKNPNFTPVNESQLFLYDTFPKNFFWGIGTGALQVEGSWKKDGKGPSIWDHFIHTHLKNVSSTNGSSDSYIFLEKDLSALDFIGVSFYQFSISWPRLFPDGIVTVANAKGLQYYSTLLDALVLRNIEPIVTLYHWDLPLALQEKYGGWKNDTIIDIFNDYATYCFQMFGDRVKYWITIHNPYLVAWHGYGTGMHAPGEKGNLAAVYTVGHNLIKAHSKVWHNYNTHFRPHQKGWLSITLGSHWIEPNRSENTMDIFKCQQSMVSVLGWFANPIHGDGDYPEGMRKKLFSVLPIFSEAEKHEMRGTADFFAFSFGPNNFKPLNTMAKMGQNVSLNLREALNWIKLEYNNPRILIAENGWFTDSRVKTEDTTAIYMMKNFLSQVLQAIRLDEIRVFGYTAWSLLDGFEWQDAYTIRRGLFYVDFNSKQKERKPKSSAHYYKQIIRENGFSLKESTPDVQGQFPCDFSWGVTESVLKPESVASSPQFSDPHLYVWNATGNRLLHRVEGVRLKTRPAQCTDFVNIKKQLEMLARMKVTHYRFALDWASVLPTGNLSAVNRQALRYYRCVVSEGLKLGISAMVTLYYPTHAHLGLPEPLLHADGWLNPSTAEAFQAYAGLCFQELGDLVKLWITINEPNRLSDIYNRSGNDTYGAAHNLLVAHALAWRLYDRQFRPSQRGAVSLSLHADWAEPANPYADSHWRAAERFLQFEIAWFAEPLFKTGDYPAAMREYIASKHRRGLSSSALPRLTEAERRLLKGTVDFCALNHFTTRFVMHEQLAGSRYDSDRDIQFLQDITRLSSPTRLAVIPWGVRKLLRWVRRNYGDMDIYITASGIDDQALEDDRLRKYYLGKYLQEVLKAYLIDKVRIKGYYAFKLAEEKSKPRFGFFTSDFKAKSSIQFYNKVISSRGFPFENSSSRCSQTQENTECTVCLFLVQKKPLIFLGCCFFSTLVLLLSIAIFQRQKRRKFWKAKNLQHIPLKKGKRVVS

B1: FGF21 wild type, Q9NSA1 29-209 (ligand)
chain: HPIPDSSPLLQPGGQVRQRYLYTDDAQQTEAHLEIREDGTVGGAADQSPESLLQLKALKPGVIQILGVKTSRFLCQRPDGALYGSLHFDPEACSFRELLLEDGYNVYQSEAHGLPLHLPGNKSPHRDPAPRGPARFLPLPGLPPAPPEPPGILAPQPPDVGSSDPLSMVGPSQGRSPSYAS
Molecule B1 displayed a pERK ICW EC50 of 0.135 nmol/L and a pFGFR ICW EC50 of 4.3 nmol/L.
